Results as given in the supplement of paper PMC9170038.

Tested on: K4 kissing-loop RNA reporter
Test: apparent KD of K4 kissing-loop reporter; higher = weaker reporter binding
Conditions: Eterna round: R107
Method: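 RNA-MaP round R107: designed RNA switches with theophylline, tryptophan, arginine or FMN aptamers are transcribed on-chip within common flanks. They are titrated with a labelled K4 kissing-loop RNA reporter in RNA-MaP buffer (100 mM Tris pH 7.5, 80 mM KCl, 4 mM MgCl2), without ligand or with the indicated ligand. Median apparent KD per design.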

[1] = input ligand: theophylline 20 uM
[2] = input ligand: tryptophan 2.4 mM
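Note: bound reporter read as fluorescence of individual clusters on recovered sequencing chips by microscopy, with normalized cluster intensities fitted with a binding model.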

| Sequence | apparent KD of K4 kissing-loop reporter (input ligand: FMN 200 uM) [µM] | apparent KD of K4 kissing-loop reporter (input ligand: arginine 13.2 mM) [µM] | apparent KD of K4 kissing-loop reporter (input ligand: none) [µM] | apparent KD of K4 kissing-loop reporter [1] [µM] | apparent KD of K4 kissing-loop reporter [2] [µM] |
| --- | --- | --- | --- | --- | --- |
| UGUGAUGUGUAGUGUUAUGUUUUGCGGGAUACCAGAGUCUUUUUAUUCCCUUGGCAGCUUGAGUGAUGUUUGAUGCUGUUCUUGU [cxxdmullin] | 0.453 | 0.349 | 0.439 | 0.41 | 0.352 |
| UUAGUUAGAUUAUUAUUAGCCUACAAUGCUAAGGAUAUCCGAAUUCGGAGAAGGUAGUGAUGUUACUUAAGUAGGCACUAACAUU [AK7 Exc FMN A] | 0.257 | 0.745 | 0.932 | 0.925 | 0.671 |
| AAGCAGUCACUCGAAUCCAUCGAAGAUGGGCGAGGACCGGUACGGCCGCCACUCGGAGUGAUGUUCCAAAGACUGCAAAAUAAAA | 0.451 | 0.378 | 0.306 | 0.55 | 0.136 |
| AGACUUCACCGAAGGAGCGACGUGGCCUAGUGAUGUUAGGCACGAGAGAAAUCUCGUAUACGUCAGGUAGGUCGCGGUGAAGUCA [Omei KL Arginine B SS C v6] | 0.204 | 0.142 | 0.165 | 0.16 | 0.18 |
| UGUCAUUGGUCGGCCGCCACUUCAAGGUCAAAGACCAAAGAGUGAUGUUCUAAGACGAAAGUCAGAAGGACCGGGACCGAUGACU [TrypBS 10 #SwitchBubble #K4Middle] | 0.168 | 0.0677 | 0.128 | 0.223 | 1.22 |
| GUUAAAUAAAUGGGCAUAGUGAUGUUGUGUCGAGGACCGGUACGGCCGCCACUCGAGCUAGCAUGCCGGUCAUUAUGGGUAGUUU [theeternabot_exclusion_KL_Trp_A_46] | 0.112 | 0.118 | 0.142 | 0.132 | 0.219 |
| AAGCAGUCACUCGAAAUCAUCAAAGAUGAACGAGGACCGGUACGGCCGCCACUCGGAGUGAUGUUCCGAAGACUGCAAAAUAAAA [MatMod 2 - Jieux - Exclusion - Tryptophan A] | 0.307 | 0.225 | 0.243 | 0.274 | 0.112 |
| GUAUCGCUAGGAGGAUAUUUCAAUUUGACUCUUUGAGUUAUUACGGAGUGAUGUUCCGAUUUACGGAAAGAAGGCCUAGUGAUAC [FMN B 12] | 0.14 | 0.17 | 0.202 | 0.172 | 0.179 |
| UAGAUAAUGUAAGAUUAUGAUAAUUGGGAAGGAGCGCGGAAAUUCGCAGGUAGGUCGCCCUAUAAAGUAGUACGAGUGAUGUUCG [6.)] | 0.217 | 0.205 | 0.281 | 0.305 | 0.261 |
| AGACUUCACCGAAGGAGCGACGUAGCCUAGUGAUGUUAGGCAAGAGAGAAAUCUCUUAUACGUCAGGUAGGUCGCGGUGAAGUCA [Omei KL Arginine B SS C v2] | 0.197 | 0.118 | 0.162 | 0.16 | 0.15 |
| AGGGAACGCACGGAUACCAGACUCAUAGUGAUGUUGUGGGUAUAAAUUAGCGCAUACACAGUCCCUUGGCAGCCGCUGAAUGGCC [theeternabot_exclusion_KL_Theo_B_1] | 0.829 | 0.644 | 0.971 | 0.835 | 0.505 |
| GGCAGUGAUGUUGCCUUCGCAAUGCAUGCAGAGGAUAUUCGUUUGGGAAGAAGGCUGCAGCGUUCUCUCGAGUGAUGUUCGGGUG [Same State FMN A GF 19] | 0.13 | 0.168 | 0.195 | 0.181 | 0.177 |
| UGGAGUUGACGAAAAGUCAACUCCUGAGAAGGAGCGCACGAAAGUGCAGGUAGGUCGCUCUACCAGUGAUGUUGGUACUUAAUAA [#OpenEnded 6] | 0.0921 | 0.17 | 0.117 | 0.162 | 0.0845 |
| GGAUAGGACAGAGGAUAUUGGUAGUGAUGUUACCAAAUAAAUAAACAGUCUACAAAGUAGGCUGACCAAGAAGGCUGUCCUAUCG [FmnBX 24 #SwitchBubble #StaticStem #Palindromic] | 0.226 | 0.0791 | 0.0852 | 0.0801 | 0.0747 |
| AAUAAUCUAGGUGAUACCAGCUCAACAUGAGUGAUGUUCAUGAACUAAUGUAGAGUUGAGAGCCCUUGGCAGCACCUAGAUAAUA [KL-SSTheoB6] | 0.873 | 0.792 | 0.966 | 0.458 | 0.962 |
| GGAGUAACCUGGGAUACCAGUCGGAGGCCUAGGGAUCGGAGUGAUGUUCUGGGAUGUUUCGGCCCUUGGCAGCUCUGGGUCUCCG [#2 Exclusion - Theophylline B Attempt #2 (HarryS)] | 0.184 | 0.105 | 0.151 | 0.158 | 0.144 |

| Sequence | apparent KD of K4 kissing-loop reporter (input ligand: FMN 200 uM) [µM] | apparent KD of K4 kissing-loop reporter (input ligand: arginine 13.2 mM) [µM] | apparent KD of K4 kissing-loop reporter (input ligand: none) [µM] | apparent KD of K4 kissing-loop reporter [1] [µM] | apparent KD of K4 kissing-loop reporter [2] [µM] |
| --- | --- | --- | --- | --- | --- |
| UCUGGAGCAUAUGAUACCAGCAGUGAGAGACAGGAAGUAUAGUGAUGUUAUAUGAGAGAAUGCCCUUGGCAGCGUGUGUAGUGGG [SSTheophylB.N] | 0.174 | 0.137 | 0.128 | 0.17 | 0.104 |
| AGCGCUGCCUGAGGAUAUAGAGACGAGUGAUGUUCGUGGAUUGAUACCAGUGAUGUUGGUCUAUUUCUAGAAGGCAGGCGAUCGU [Exclusion FMN B GF 3] | 0.131 | 0.0856 | 0.103 | 0.105 | 0.103 |
| UGACUGGACUGAAGGAGCGCUGAACUCCUAGUGAUGUUAGGAAAACGAGACAAAGUCUCGCGGCAGGUAGGUCGCAGUCUAGUCU | 0.13 | 0.0859 | 0.108 | 0.111 | 0.0992 |
| UGAUACCAGGCGGCCGCCACUCCUGCAGGUCAAAGACCUGUGAAGCUGGUUCUCCAGUGAUGUUGGAGGACCGGGCCUGGUAUCU [FiskerMod 27 - Jieux - Exclusion - Tryptophan B] | 0.202 | 0.176 | 0.185 | 0.179 | 0.356 |
| AGCAGUCACUCGAAAACCAUCGAAGAUGGACGAGGACCGGUACGGCCGCCACUCGGAGUGAUGUUCCGAAGACUGCAAAAUAAAA [#SwitchBubble 16] | 0.38 | 0.402 | 0.433 | 0.346 | 0.435 |
| GCUACCUAGGCAGGAUAUAGACAUUGAGUGAUGUUCGAUGAUUAUCCAUAUUCCCGUCACAUAUGACUAGAAGGGCCUAGGUAGC | 0.66 | 0.184 | 0.221 | 0.228 | 0.211 |
| AAGUCUCGUUAAUUCGUGGUUUCGAUCGAUACCAGUAGCGAGAGGUACCCUUGGCAGCGAAAUGAGUGAUGUUCAUGAAAGAAGA [KL-XTheoA11] | 0.101 | 0.124 | 0.111 | 0.153 | 0.0871 |
| AAGUGAUGUUGUAGUGAUGUUGUGAUGUUGCAGGAUAUAUAGUGAUGUAGAAGGGUAAGUACUGAUGUUGUUAGUGAGUGAUGUU [wwzrrmullin] | 0.111 | 0.0498 | 0.0879 | 0.0811 | 0.0866 |
| GAUUCAGUGAUGUUGGAAGGCGAGCGGGAUACCAGCCAAGACUCAGGCCCUUGGCAGCCCACAUAUCCCAGGUAGAUAGUCGCUC [Same State - Theophylline A (Freestyle 11)] | 0.271 | 0.265 | 0.254 | 0.293 | 0.27 |
| AAUAAGGUCGCCGAUACCAGCGCGGGCAGAGCAAAGCUCUGCCCGGCAGUGAUGUUGCCGCGCCCUUGGCAGCGGUGGCACGACC [Omei KL Theo B SS C v7] | 0.166 | 0.0484 | 0.0472 | 0.216 | 0.0558 |
| CUAUCUUAAGAAGGAUAUUAUGUAACAAACGCAGGCGUAUUAGAAUCAGUGAUGUUGAAAUAGGUUUAAGAAGGUCUUAAAGAAA [theeternabot_sameState_KL_FMN_B_31] | 0.593 | 0.422 | 0.326 | 0.608 | 0.243 |
| AGCCACGACGCGGCCGCCACUGCCAUUAAACGUAAGGCAAAUCUAAUCUUCGAGUGAUGUUCGGGCAGGACCGGGCGGAGACUUG [theeternabot_sameState_KL_Trp_B_18] | 0.636 | 0.3 | 0.478 | 0.772 | 0.371 |
| GUGCGGUGGAGGCUACCGCUACUCUGAGAAGGAGCGCAGAUGACUGCAGGUAGGUCGCUUAGAGCUUGCAGUGAUGUUGCAAGUU [Teorzaqu] | 0.166 | 0.157 | 0.188 | 0.132 | 0.14 |
| AAUAAAAUCACGGCCGCCACUGAUAUCCAUAUUAGGAGUGAUGUUCCUAUGACUAUAUAAUUUAACAGGACCGGGUGAAUAUUUA [JR_SSTryptoB_Sub024] | 0.104 | 0.111 | 0.107 | 0.115 | 0.1 |
| AGUAGUUGGGCGGCCGCCACUGGAACAGCUUUGUCAAAGACAGAGCACUAGAGUGAUGUUCUAGCUAGGACCGGGUCCAACUACA [whbob_SS_Tryp_B_t17] | 0.46 | 0.206 | 0.533 | 0.503 | 0.991 |
| AAAAUAAACCAGUGAUGUUGGUGUCCAGAUACCAGCGAUAAAAGUCGCCCUUGGCAGCUGUGGACGUACAAAAUAAGUACGUCCU [MatMod 2 - Jieux - Same State - Theophylline A] | 0.703 | 0.533 | 0.872 | 0.529 | 0.678 |
